Substrate: CC(C)(O)[C@@H]1CC[C@](C)([C@H]2[C@@H](O)C[C@@]3(C)[C@@H]4C[C@H](O[C@@H]5O[C@H](CO)[C@@H](O)[C@H](O)[C@H]5O)[C@H]5C(C)(C)[C@@H](O[C@@H]6OC[C@@H](O)[C@H](O)[C@H]6O)CC[C@@]56C[C@@]46CC[C@]23C)O1
Assay: UHPLC kinetic assay of acetylation
Type: biochemical, Astragalus propinquus
Details: acetyl-CoA as acyl donor

B1: AmAT7-3 (Astragalus propinquus; A310G) (protein)
chain: MSSLRLVSSSTIQAANDNNDDSSQLIDLTVWDLIGLERESIQQGLLYHHPNQVDTPNQIQHLKHSLSSTLSFFPPFAGRLVITEYEDNTATCFIACNNAGALFVHAVAENTTISDILQPNKYVPPIVNSLFSLNGVKNREGTIQPLLVVQVTELVDGIFIGLTVNHVVADGKSFWLFVNSWAEISRGFQKPSKLPTLERWFLNDTDHPIRFSFSMEEEKKKFQSGQLTTRFFHFTRENIAHLKSKANGEVTLGNTERRISSLQALLAHVWRSVVRCERIDPQEVLYYILLIDARTRLIPPLEDDYFGNAGDAGVVIMKAGELLEGGLGNVAWNMNKVISLNSDEKIKNRYKSWLRTPQLPSMGMHTTFASQLLIIANSPRFNVYGNDFGWGKPLAVRSSAENKRDCKIVLFAGAEEGSIDIEVCLPYEILEALGNDAEFLDNHSIG
notes: full length cloned in pET-28a(+), E. coli BL21(DE3), Ni-NTA; for kinetics and crystals pET28a-TEV plus size exclusion
Paper prints 'toward 1a', read as formation of product 1a (C3'-O-acetylation) from 1
  Km: 76.7 µM

B2: AmAT7-3 (Astragalus propinquus; A310W) (protein)
chain: MSSLRLVSSSTIQAANDNNDDSSQLIDLTVWDLIGLERESIQQGLLYHHPNQVDTPNQIQHLKHSLSSTLSFFPPFAGRLVITEYEDNTATCFIACNNAGALFVHAVAENTTISDILQPNKYVPPIVNSLFSLNGVKNREGTIQPLLVVQVTELVDGIFIGLTVNHVVADGKSFWLFVNSWAEISRGFQKPSKLPTLERWFLNDTDHPIRFSFSMEEEKKKFQSGQLTTRFFHFTRENIAHLKSKANGEVTLGNTERRISSLQALLAHVWRSVVRCERIDPQEVLYYILLIDARTRLIPPLEDDYFGNAWDAGVVIMKAGELLEGGLGNVAWNMNKVISLNSDEKIKNRYKSWLRTPQLPSMGMHTTFASQLLIIANSPRFNVYGNDFGWGKPLAVRSSAENKRDCKIVLFAGAEEGSIDIEVCLPYEILEALGNDAEFLDNHSIG
notes: as for B1
Paper prints 'toward 1b', read as formation of product 1b (C4'-O-acetylation) from 1
  Km: 168.3 µM

Source: publication PMC10519980, “Characterization and structure-based protein engineering of a regiospecific saponin acetyltransferase from Astragalus membranaceus” (Nature Communications, 2023)
